The values that follow come from US20240082302A1 (University of Pennsylvania, published 2024).

First the molecules themselves.
B1: Anti-TIM3 VHH30 (VHH)
VHH: QVQLQESGGGLVQAGGSLRLSCAASGFTFGSYVMGWFRQAPGKEREFVASISTSGGITSYADSVKGRFTVSRDNAKNTVYLQMNSLKPEDTAVYYCARDLTYYRTGGRLPDNANGYAYWGQGTQVTVSS
notes: Llama VHH tested as a phage clone (pCOMB3X phage display) by flow cytometry on cells
B2: Anti-TIM3 VHH32 (VHH)
VHH: QVQLQESGGGLVQAGGSLNLSCAASGSSFRLYTVGWHRQAPGKQRELVAWISGAGSTNYHSSVKGRFTISRDNAKNTALLQMNNLAPEDTAVYYCNLLNYWGQGTQVTVSS
notes: as for B1
B3: Anti-TIM3 VHH33 (VHH)
VHH: QVQLQESGGGLVQPGGSLRLSCAVSGLTPDAYVMGWFRQAPGKEREGVSCISPSGGTTSYPDSVKGRFTISRDNAKNTVYLQMNSLKPEDTGVYYCAAVAGRWCDYGMNYYGKGTQVTVSS
notes: as for B1
B4: Anti-TIM3 VHH13 (VHH)
VHH: QVQLQESGGGLVQAGGSLSLSCAASGRTFKNYLMAWFRQTPGKEREFVAAITQLGTRSLNEDFVKGRFTISRDNAKNTVYLQMNDLKTDDTGVYSCAASLQSGGSLRYAKYDYWGQGTQVTVSS
notes: Llama VHH isolated as a phage display clone (pCOMB3X)
B5: Anti-TIM3 VHH12 (VHH)
VHH: QVQLQESGGGLVQTGDSLRLSCVVSGGTFRNYVMGWFRQAPGKEREFVSAMNWSGGITVYADSVKGRFTISRDNAKNAVYLQMGSLKPGDTAVYYCAAAAIDGGTVRSINSYAYWGQGTQVTVSS
notes: as for B4
B6: Anti-TIM3 VHH38 (VHH)
VHH: QVQLQESGGGLVQAGDSLRLSCAVGRTFSASTLGWFRQSPGKEREFVAAISWWRGEAYYGDSVKGRFTISRDNTKTTINLQMNSLKPEDTAVYYCARAQFDGATRADDYDNWGQGTQVTVSS
notes: as for B4

The target in one assay is T1, human TIM-3 expressed on cells (NB4-TIM3 cells; human AML leukemic stem cells) (human, UniProt Q8TDQ0 22-301).
T1 construct: whole, on cells; also called NB4-expressing human TIM-3
T1 sequence (looked up): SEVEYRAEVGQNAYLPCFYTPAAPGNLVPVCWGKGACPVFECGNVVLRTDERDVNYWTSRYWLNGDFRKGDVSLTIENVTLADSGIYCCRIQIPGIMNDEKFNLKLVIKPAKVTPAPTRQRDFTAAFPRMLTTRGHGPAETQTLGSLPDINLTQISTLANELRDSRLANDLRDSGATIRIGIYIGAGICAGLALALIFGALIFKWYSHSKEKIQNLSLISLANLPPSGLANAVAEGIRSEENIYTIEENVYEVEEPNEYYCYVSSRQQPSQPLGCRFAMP
As to the kind of experiment: flow cytometry, VHH phage clones on NB4 cells expressing human TIM-3. Background: Flow cytometry measures light scatter and fluorescence of single cells or particles in a stream.
For B1, the binding result is recorded as “binds”.
Same read-out and setting: then B2, with “binds”.
Still for that read-out and setting: then B3, with “binds”.

In a further assay the target is T1, human TIM-3 expressed on cells …. As to the kind of experiment: phage display panning/screening on TIM-3 expressing NB4 cells. From the text: To generate VHHs targeting human TIM-3, human recombinant extracellular TIM-3 purified from HEK293 cells was used to immunize llamas, and the resulting VHH phage display libraries were constructed. The phage VHH clones targeting TIM-3 were screened by panning through TIM-3 expressing NB4 cells. The positive clones specifically binding to TIM-3 expressing NB4 cells were isolated. DNA encoding each of the VHHs, including VHH30, 32, and 33, were sequenced. The sequences were consistent with the predicted sequences for VHHs. Each of the VHHs, with both nucleotide and amino acid sequences, are listed below.
Regarding B4, the binding result is given as “binds”.
On the same count and under the same terms, then B5, with “binds”; and B6, with “binds”.
